Assay results reported in article PMC4268495 (Nature, 2014).
Where a chain is given by its changes, count along the chain named.

Target: T1, FtsZ (full length, recombinant) (Streptococcus pneumoniae, UniProt A0A0H2ZNE0 1-419)
T1 sequence (looked up): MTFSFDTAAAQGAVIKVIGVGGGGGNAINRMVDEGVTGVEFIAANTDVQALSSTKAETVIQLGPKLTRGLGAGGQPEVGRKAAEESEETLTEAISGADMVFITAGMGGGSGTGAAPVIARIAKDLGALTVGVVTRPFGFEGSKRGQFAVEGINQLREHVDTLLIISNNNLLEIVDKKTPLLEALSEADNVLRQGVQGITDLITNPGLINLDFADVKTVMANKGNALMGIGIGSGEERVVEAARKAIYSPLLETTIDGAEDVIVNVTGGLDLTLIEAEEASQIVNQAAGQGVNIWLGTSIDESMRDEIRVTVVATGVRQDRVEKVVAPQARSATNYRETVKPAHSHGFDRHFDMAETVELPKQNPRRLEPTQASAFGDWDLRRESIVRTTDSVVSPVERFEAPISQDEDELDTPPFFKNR
Experiment: SPR

B1: MapZ cytoplasmic domain (domain or fragment, Streptococcus pneumoniae, UniProt Q8DR55 1-158, looked up)
chain: MSKKRRNRHKKEAQEPQFDFDEAKELTVGQAIRKNEEVEAGVLPEDSILDKYVKQHRDEIEADKFATRQYKKEEFVETQSLDDLIQEMREAVEKSEASSEEVPSSEDILLPLPLDDEEQGLDPLLLDDENPTEMTEEVEEEQNLSRLDQEDSEKKSKK
  Kd: 8.76 nM

B2: MapZ-2TE cytoplasmic domain (domain or fragment, Streptococcus pneumoniae, UniProt Q8DR55 1-158, looked up)
chain: B1 chain with T67E, T78E
  binding result: binds

## MSKKRRNRHKKEAQEPQFDFDEAKELTVGQAIRKNEEVEAG (domain or fragment, Streptococcus pneumoniae, UniProt Q8DR55 1-41, looked up) [MapZ N-terminal peptide from Met-1 to Gly-41]
  Kd: 20.4 nM
